Laboratory results as given in article PMC9781407, “β-Xylosidase SRBX1 Activity from Sporisorium reilianum and Its Synergism with Xylanase SRXL1 in Xylose Release from Corn Hemicellulose” (Journal of Fungi, 2022).

Substrate: O=[N+]([O-])c1ccc(O[C@@H]2OC[C@@H](O)[C@H](O)[C@H]2O)cc1
Experiment: purified protein
Assay type: biochemical, Sporisorium reilianum
Settings: 50 mM-type acetate buffer assay, pH 4, substrate 1-7 mM, temperature not stated for the kinetics

B1: β-xylosidase SRBX1 (Sporisorium reilianum SRZ2) (protein)
chain: ASLEHLNMLFHTRQADASNSTDSSSVNWNISSSDNSALATAPLAGTFYRGGPALADANSPFHPVTGNGGWEWAVVKARSVVGQLTLEEKVNLTAGITGGRCEGTLGRVDRFGIPELCFQDGPAGFRASDFVTVFPAGVTTAATWNRDLIYKRAAALGAEFVAKGVNVHLGPVTGGPLGRSPFQGRNWEGFGPDPYLHGEAAYYTVSGTQSAGVISTAKHFLAYEQETYRQLYAASDPFTLNPNNNTELTYSANLDDRTLHELYLWPFMNAVRAGTGALVCVYNRVNSTQGCESSKLLNEILKDELDYQGFVVTDWSAAFNTSNTYNGGSDVVMPGGMTGGYKNLVGGSDLVRALNAGEVKIERINDGITRLLTQWYLRGQDKGYPTVSYKDGYQNTIFNGTVVNEHRDVQGDHRKIVKEIGEEAVTLIYNKRSNKAGPQGNTDFGLGLPLAKKARVAVFGSDAGPNPYGANACQDWIGLGSQLCPANATSNGTQAVGWGSGAGFFPYLIDPLAGISEVAKENRGAVLHNLNDVGDDKNQMYVKQQAGLADASLVFVQARSGEDSDRHSLRLDADGDELIKLVASQSNNTIVVMHTVGPVLMGDWFDHPNITALVLPHLPGQESGSSLARVLYGDVNPSGKMPYSMLSDEDAKRYPKIVGSPASDPQVDFYDGLYIDYRAWDKMGLKPLIPFGHGISYTNYSYSNLHIQKAGDNCYAPSAFSGSFKSDKQPGGPGSLFQYLVEVSADVQNVGAMAGDEVAQLYVGYPEAANAPIKQLRGFDKVQGLEPGAASKQATFKLAKRDFSVWDVVKQKFEVVDGEYKIWVGKSSRMSDLTLKGSVTMQNGMVVGMSS
notes: native extracellular enzyme purified from S. reilianum culture supernatant by gel filtration; theoretical precursor 874 aa, signal peptide 1-23; monomer; 12 theoretical glycosylation sites; no tag
- Km: 2500 µM
